Assay [1] addresses MPXV Bio-M2 (site-specifically biotinylated MPXV Avi-M2) (monkeypox virus (Clade I), UniProt Q8V554 18-220). The assay is described as follows: BLI; […] (10 ug/mL) […]; 10 mM HEPES pH 7.4, 150 mM NaCl, 3 mM EDTA, 1% BSA; 1:1 Langmuir model, […]. Particulars: both partners purified. (In general: Biolayer interferometry detects binding as a change in optical thickness at a sensor tip.)

Assay [2] has as its target T1, MPXV M2 (monkeypox virus M2 protein), His-tagged, wild type (monkeypox virus (Clade I), UniProt Q8V554 18-220).
T1 construct: copies: 6 or 7
The assay is described as follows: BLI; […] (10 ug/mL) […]; 10 mM HEPES pH 7.4, 150 mM NaCl, 3 mM EDTA, 0.05% Tween, 1% BSA; 25 °C; 1:1 model; […]. To be noted: both partners purified.

B1: human B7.1 ectodomain, His-tagged (domain or fragment)
chain: VIHVTKEVKEVATLSCGHNVSVEELAQTRIYWQKEKKMVLTMMSGDMNIWPEYKNRTIFDITNNLSIVILALRPSDEGTYECVVLKYEKDAFKREHLAEVTLSVKADFPTPSISDFEIPTSNIRRIICSTSGGFPEPHLSWLENGEELNAINTTVSQDPETELYAVSSKLDFNMTTNHSFMCLIKYGHLRVNQTFNWNTT
notes: also called hB7.1; CD80
One may read the Kd as the equilibrium constant for the complex coming apart. Low readings indicate higher affinity, high ones lower affinity. For the molecule B1, in assay [1], binding was put at a Kd of 95.3 nM and the “t1/2 (dissociation half-life time)” value worked out at 1.71 min.

B2: human B7.1 ectodomain fused to human Fc (Fc fusion, UniProt P33681-1 35-234, looked up)
chain: B1 chain
notes: also called hB7.1-Fc; hB7.1-hFc; not shown: Fc (human), C-terminal, kept
In assay [2], B2 returned a Kd of 0.15 nM.

B3: human B7.2 ectodomain, His-tagged (domain or fragment)
chain: LKIQAYFNETADLPCQFANSQNQSLSELVVFWQDQENLVLNEVYLGKEKFDSVHSKYMGRTSFDSDSWTLRLHNLQIKDKGLYQCIIHHKKPTGMIRIHQMNSELSVLANFSQPEIVPISNITENVYINLTCSSIHGYPEPKKMSVLLRTKNSTIEYDGVMQKSQDNVTELYDVSISLSVSFPDVTSNMTIFCILETDKTRLLSSPFSIELED
notes: also called hB7.2; CD86
Take B3: in assay [1], binding was put at a Kd of 388 nM and the “t1/2 (dissociation half-life time)” value worked out at 0.345 min.

B4: human B7.2 ectodomain fused to human Fc (Fc fusion)
chain: B3 chain
notes: also called hB7.2-Fc; hB7.2-hFc; not shown: Fc (human), C-terminal, kept
B4: binding in assay [2] was put at a Kd of 0.05 nM.

Values taken from publication PMC10457294 (Nature Communications, 2023).
